Results taken from patent publication US20230074436A1 (DENALI THERAPEUTICS, published 2023).
No end group written: not given here. *: point of attachment. Biotin = O=C1N[C@H]2[C@H](CS[C@H]2CCCCC(=O)*)N1

Columns and labels:
[1] = molecular target: human alpha-synuclein pre-formed fibrils (human, UniProt P37840 1-140); assay: competition ELISA: fibrils titrated in solution against 0.6 nM antibody, free antibody read on aSyn-coated plate
Method: Purified antibody was probed with different concentrations of alpha-synuclein fibrils in solution, and the levels of unbound antibody were measured by ELISA analysis. In this experiment, 0.6 nM (0.1 μg/mL) of purified antibody was dissolved in phosphate-buffered saline (PBS) solution. […] The mixtures were gently shaken at room temperature for 1 hour to reach equilibrium. After that, these samples were transferred to an alpha-synuclein protein-coated ELISA plate and incubated for 5 minutes. During this short incubation, antibody that was not associated to antigen in the previous solution could instead bind onto the plate, and thus be quantified using a standard ELISA technique. By this means, it was possible to determine the amount of free antibody in the initial mixture with alpha-synuclein fibrils at indicated concentrations.

asyn_113-127_121A [2] = molecular target: T1, asyn_113-127_121A (human); assay: Ala-scan peptide ELISA, row H, run 2
T1 construct: substitution is already in the entry; also called pep10
T1 peptide: Biotin-LEDMPVDPANEAYEM
Method: (§1) 96-well Nunc plates were coated with 50 μL per well of 1 μg/mL streptavidin (from Jackson Immuno Research Laboratory) in PBS at 4° C. overnight. The plates were washed three times with PBST, and blocked with PBS containing 3% BSA at room temperature for 1 hour. The N-terminal biotinylated peptides were dissolved in Milli Q water to a concentration of 2 mg/mL, then further diluted to a concentration of 2 μg/mL with PBS. 50 μl of the diluted peptide was applied to the streptavidin-coated plates and incubated at 4° C. overnight. 2 μg/mL of biotinylated human alpha-synuclein was used as the positive control. The plates were washed three times with PBST before use. Purified antibody was diluted by serial dilution methods, from 20 μg/mL to 1 ng/mL, and 50 μL of the antibody solution was added to the peptide-coated wells. The plates were incubated for 1 hour at room temperature, then washed three times with PBST. Secondary detection antibody (goat anti-rat HRP (obtained from Southern Biotech)) was added with 1:5,000 dilutions and incubated for 1 hour at room temperature, then washed three times with PBST. Plates were developed with 50 μL/well of TMB substrate (Thermo Fisher) and quenched with 50 μL/well of 1 N sulfuric acid. The signal was quantified on a BioTek® plate reader at A450. A parallel repeat was performed for each peptide in a separate plate.

asyn_113-127_127A [3] = molecular target: T2, asyn_113-127_127A (human); assay: Ala-scan peptide ELISA, row H, run 2
T2 construct: substitution is already in the entry; also called pep17
T2 peptide: Biotin-LEDMPVDPDNEAYEA
Method: as §1

asyn_113-127_126A [4] = molecular target: T3, asyn_113-127_126A (human); assay: Ala-scan peptide ELISA, row H, run 2
T3 construct: substitution is already in the entry; also called pep16
T3 peptide: Biotin-LEDMPVDPDNEAYAM
Method: as §1

asyn_113-127_124G [5] = molecular target: T4, asyn_113-127_124G (human); assay: Ala-scan peptide ELISA, row H, run 2
T4 construct: substitution is already in the entry; also called pep13
T4 peptide: Biotin-LEDMPVDPDNEGYEM
Method: as §1

asyn_113-127_113A [6] = molecular target: T5, asyn_113-127_113A (human); assay: Ala-scan peptide ELISA, row H, run 2
T5 construct: substitution is already in the entry; also called pep2
T5 peptide: Biotin-AEDMPVDPDNEAYEM
Method: as §1

asyn_113-127_117A [7] = molecular target: T6, asyn_113-127_117A (human); assay: Ala-scan peptide ELISA, row H, run 2
T6 construct: substitution is already in the entry; also called pep6
T6 peptide: Biotin-LEDMAVDPDNEAYEM
Method: as §1

asyn_113-127 [8] = molecular target: T7, asyn_113-127 (human); assay: Ala-scan peptide ELISA, row H, run 2
T7 construct: also called pep1
T7 peptide: Biotin-LEDMPVDPDNEAYEM
Method: as §1

asyn_113-127_114A [9] = molecular target: T8, asyn_113-127_114A (human); assay: Ala-scan peptide ELISA, row H, run 2
T8 construct: substitution is already in the entry; also called pep3
T8 peptide: Biotin-LADMPVDPDNEAYEM
Method: as §1

asyn_113-127_122A [10] = molecular target: T9, asyn_113-127_122A (human); assay: Ala-scan peptide ELISA, row H, run 2
T9 construct: substitution is already in the entry; also called pep11
T9 peptide: Biotin-LEDMPVDPDAEAYEM
Method: as §1

asyn_113-127_120A [11] = molecular target: T10, asyn_113-127_120A (human); assay: Ala-scan peptide ELISA, row H, run 2
T10 construct: substitution is already in the entry; also called pep9
T10 peptide: Biotin-LEDMPVDADNEAYEM
Method: as §1

asyn_113-127_124P [12] = molecular target: T11, asyn_113-127_124P (human); assay: Ala-scan peptide ELISA, row H, run 2
T11 construct: substitution is already in the entry; also called pep14
T11 peptide: Biotin-LEDMPVDPDNEPYEM
Method: as §1

asyn_113-127_119A [13] = molecular target: T12, asyn_113-127_119A (human); assay: Ala-scan peptide ELISA, row H, run 2
T12 construct: substitution is already in the entry; also called pep8
T12 peptide: Biotin-LEDMPVAPDNEAYEM
Method: as §1

asyn_113-127_125A [14] = molecular target: T13, asyn_113-127_125A (human); assay: Ala-scan peptide ELISA, row H, run 2
T13 construct: substitution is already in the entry; also called pep15
T13 peptide: Biotin-LEDMPVDPDNEAAEM
Method: as §1

asyn_113-127_123A [15] = molecular target: T14, asyn_113-127_123A (human); assay: Ala-scan peptide ELISA, row H, run 2
T14 construct: substitution is already in the entry; also called pep12
T14 peptide: Biotin-LEDMPVDPDNAAYEM
Method: as §1

asyn_113-127_121A [16] = molecular target: T1, asyn_113-127_121A; assay: Ala-scan peptide ELISA, row E, run 2
Method: as §1

asyn_113-127_118A = molecular target: T15, asyn_113-127_118A (human); assay: Ala-scan peptide ELISA, row E, run 2
T15 construct: substitution is already in the entry; also called pep7
T15 peptide: Biotin-LEDMPADPDNEAYEM
Method: as §1

[17] = molecular target: biotinylated human alpha-synuclein (human, UniProt P37840 1-140); assay: Ala-scan peptide ELISA, row E, run 2
Method: as §1

asyn_113-127_127A [18] = molecular target: T2, asyn_113-127_127A; assay: Ala-scan peptide ELISA, row E, run 2
Method: as §1

asyn_113-127_126A [19] = molecular target: T3, asyn_113-127_126A; assay: Ala-scan peptide ELISA, row E, run 2
Method: as §1

asyn_113-127_124G [20] = molecular target: T4, asyn_113-127_124G; assay: Ala-scan peptide ELISA, row E, run 2
Method: as §1

asyn_113-127_113A [21] = molecular target: T5, asyn_113-127_113A; assay: Ala-scan peptide ELISA, row E, run 2
Method: as §1

asyn_113-127_117A [22] = molecular target: T6, asyn_113-127_117A; assay: Ala-scan peptide ELISA, row E, run 2
Method: as §1

asyn_113-127_115A = molecular target: T16, asyn_113-127_115A (human); assay: Ala-scan peptide ELISA, row E, run 2
T16 construct: substitution is already in the entry; also called pep4
T16 peptide: Biotin-LEAMPVDPDNEAYEM
Method: as §1

asyn_113-127 [23] = molecular target: T7, asyn_113-127; assay: Ala-scan peptide ELISA, row E, run 2
Method: as §1

asyn_113-127_116A = molecular target: T17, asyn_113-127_116A (human); assay: Ala-scan peptide ELISA, row E, run 2
T17 construct: substitution is already in the entry; also called pep5
T17 peptide: Biotin-LEDAPVDPDNEAYEM
Method: as §1

asyn_113-127_114A [24] = molecular target: T8, asyn_113-127_114A; assay: Ala-scan peptide ELISA, row E, run 2
Method: as §1

asyn_113-127_122A [25] = molecular target: T9, asyn_113-127_122A; assay: Ala-scan peptide ELISA, row E, run 2
Method: as §1

asyn_113-127_120A [26] = molecular target: T10, asyn_113-127_120A; assay: Ala-scan peptide ELISA, row E, run 2
Method: as §1

asyn_113-127_124P [27] = molecular target: T11, asyn_113-127_124P; assay: Ala-scan peptide ELISA, row E, run 2
Method: as §1

asyn_113-127_119A [28] = molecular target: T12, asyn_113-127_119A; assay: Ala-scan peptide ELISA, row E, run 2
Method: as §1

asyn_113-127_125A [29] = molecular target: T13, asyn_113-127_125A; assay: Ala-scan peptide ELISA, row E, run 2
Method: as §1

asyn_113-127_123A [30] = molecular target: T14, asyn_113-127_123A; assay: Ala-scan peptide ELISA, row E, run 2
Method: as §1

beta-synuclein protein = molecular target: T18, beta-synuclein protein (human, UniProt Q16143 1-134); assay: ELISA on coated synuclein, 1 ug/mL
T18 construct: species read from 'recombinant human alpha-synuclein protein, beta-synuclein protein, and gamma-synuclein protein'
Method: (§2) Binding to different synuclein species was tested using a method similar to the ELISA format described above. Briefly, recombinant human alpha-synuclein protein, beta-synuclein protein, and gamma-synuclein protein was coated onto 96-well Nunc plates at 1 μg/mL. The plates were washed with PBST and blocked with 150 μL of 3% BSA in PBS. The serial dilutions of purified antibodies were applied onto the plate, and the associated antibody was detected with goat anti-rat HRP secondary antibody.

gamma-synuclein protein = molecular target: T19, gamma-synuclein protein (human, UniProt O76070 1-127); assay: ELISA on coated synuclein, 1 ug/mL
T19 construct: species read from 'recombinant human alpha-synuclein protein, beta-synuclein protein, and gamma-synuclein protein'
Method: as §2

B1: 20H4 (antibody, rat IgG2b, V domains shown)
VH: AVQLVESGGGLVQPKESLKISCAASGFTFSNAAMYWVRQAPGKGLELLARIRTKPNNYATYHADSVKGRFTISRDDSQSMVYLHMGNLKTEDTAMYYCTADMATGDYWGPGVMVTVSS
VL: DIQMTQSPPVLSVSVGDRVTLSCKASQNINKNLDWYQQKHGEAPKPLIYSTNNLQTGVPSRFSGSGSGTDYTLTISSLQPEDVATYYCYQYKSAWTFGGGTKLELR
notes: also called clone 20H4; rat 20H4
- IC50 [1]: 1.73 nM
- A450 (asyn_113-127_121A [2]): 0.069 OD
- A450 (asyn_113-127_127A [3]): 0.066 OD
- A450 (asyn_113-127_126A [4]): 0.073 OD
- A450 (asyn_113-127_124G [5]): 0.066 OD
- A450 (asyn_113-127_113A [6]): 0.066 OD
- A450 (asyn_113-127_117A [7]): 0.083 OD
- A450 (asyn_113-127 [8]): 0.064 OD
- A450 (asyn_113-127_114A [9]): 0.066 OD
- A450 (asyn_113-127_122A [10]): 0.051 OD
- A450 (asyn_113-127_120A [11]): 0.057 OD
- A450 (asyn_113-127_124P [12]): 0.046 OD
- A450 (asyn_113-127_119A [13]): 0.046 OD
- A450 (asyn_113-127_125A [14]): 0.049 OD
- A450 (asyn_113-127_123A [15]): 0.068 OD
- A450 (asyn_113-127_121A [16]): 0.223 OD
- A450 (asyn_113-127_118A): 0.256 OD
- A450 [17]: 0.531 OD
- A450 (asyn_113-127_127A [18]): 0.279 OD
- A450 (asyn_113-127_126A [19]): 0.272 OD
- A450 (asyn_113-127_124G [20]): 0.215 OD
- A450 (asyn_113-127_113A [21]): 0.237 OD
- A450 (asyn_113-127_117A [22]): 0.267 OD
- A450 (asyn_113-127_115A): 0.145 OD
- A450 (asyn_113-127 [23]): 0.242 OD
- A450 (asyn_113-127_116A): 0.247 OD
- A450 (asyn_113-127_114A [24]): 0.243 OD
- A450 (asyn_113-127_122A [25]): 0.05 OD
- A450 (asyn_113-127_120A [26]): 0.15 OD
- A450 (asyn_113-127_124P [27]): 0.047 OD
- A450 (asyn_113-127_119A [28]): 0.045 OD
- A450 (asyn_113-127_125A [29]): 0.049 OD
- A450 (asyn_113-127_123A [30]): 0.259 OD
- binding result (beta-synuclein protein): no binding
- binding result (gamma-synuclein protein): no binding
